# According to publication PMC10192046:
# T1: interferon regulatory factor 3 (human (endogenous in THP-1)), Q14653
# T1 chain: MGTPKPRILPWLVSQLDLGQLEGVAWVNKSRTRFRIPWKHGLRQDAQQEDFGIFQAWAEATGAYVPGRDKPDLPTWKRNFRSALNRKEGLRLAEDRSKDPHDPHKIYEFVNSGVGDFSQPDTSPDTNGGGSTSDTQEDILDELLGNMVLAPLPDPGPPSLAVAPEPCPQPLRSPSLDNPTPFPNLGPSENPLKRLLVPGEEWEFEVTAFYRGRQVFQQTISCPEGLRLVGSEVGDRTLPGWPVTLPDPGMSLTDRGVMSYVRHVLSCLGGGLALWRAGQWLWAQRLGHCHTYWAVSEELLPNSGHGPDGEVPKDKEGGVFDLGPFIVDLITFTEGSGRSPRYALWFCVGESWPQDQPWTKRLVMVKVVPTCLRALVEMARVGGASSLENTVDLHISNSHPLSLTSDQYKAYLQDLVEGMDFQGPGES
# B1: interferon regulatory factor 3, Q14653 1-427 (natural protein)
# chain: T1 chain
# Biological target: T1, interferon regulatory factor 3 (human …)
# Experiment: native gel or EMSA
# Conditions: remark: other sources report otherwise
binder,measurement,value
B1,stoichiometry N,2
